We go through one substance from patent US20230365712A1.

In this assay the target is Notch4^GFP expressed in transfected Jurkat cells.

In the case of Jagged1 (ligand), the Notch4-GFP positive cells (%), Jagged1 without mAb was determined as 53.5%.
